# Data as given in paper PMC12416549 (2024).
# Numbering of substitutions follows the chain as printed. Names and notes keep the numbering of the source.
# T1: TNFR1 (Homo sapiens, UniProt P19438)
# T1 chain: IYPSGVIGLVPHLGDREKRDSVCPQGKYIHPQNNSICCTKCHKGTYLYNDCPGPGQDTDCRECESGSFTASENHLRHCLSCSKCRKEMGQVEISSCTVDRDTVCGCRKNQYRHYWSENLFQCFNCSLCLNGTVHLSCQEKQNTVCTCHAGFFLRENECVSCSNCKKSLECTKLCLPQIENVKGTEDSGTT
# B1: K18E (designed binder)
# chain: SMEEEVEKAAKEYEKKKEEAIEKHLEKLKAKDKEAAERFLKELEEAAKEYAKDEAKTMSEEEAKRRAKKYKEKVLLSELSEEEQKEIKEAEEKLVRTILKYVEEAAK
# B2: L79E (designed binder)
# chain: B1 chain with E18K, L79E
# B3: A9K (designed binder)
# chain: B1 chain with A9K, E18K
# B4: K15V (designed binder)
# chain: B1 chain with K15V, E18K
# B5: R38Y (designed binder)
# chain: B1 chain with E18K, R38Y
# B6: A35T (designed binder)
# chain: B1 chain with E18K, A35T
# B7: E37T (designed binder)
# chain: B1 chain with E18K, E37T
# B8: K88S (designed binder)
# chain: B1 chain with E18K, K88S
# B9: D32T (designed binder)
# chain: B1 chain with E18K, D32T
# B10: A20K (designed binder)
# chain: B1 chain with E18K, A20K
# B11: V95Q (designed binder)
# chain: B1 chain with E18K, V95Q
# B12: A36N (designed binder)
# chain: B1 chain with E18K, A36N
# B13: E42I (designed binder)
# chain: B1 chain with E18K, E42I
# B14: A105G (designed binder)
# chain: B1 chain with E18K, A105G
# B15: K107Y (designed binder)
# chain: B1 chain with E18K, K107Y
# B16: E4F (designed binder)
# chain: B1 chain with E4F, E18K
# B17: K71I (designed binder)
# chain: B1 chain with E18K, K71I
# B18: V95H (designed binder)
# chain: B1 chain with E18K, V95H
# B19: E103C (designed binder)
# chain: B1 chain with E18K, E103C
# B20: Y13L (designed binder)
# chain: B1 chain with Y13L, E18K
# B21: V74S (designed binder)
# chain: B1 chain with E18K, V74S
# B22: R38V (designed binder)
# chain: B1 chain with E18K, R38V
# B23: E54H (designed binder)
# chain: B1 chain with E18K, E54H
# B24: K8M (designed binder)
# chain: B1 chain with K8M, E18K
# B25: K27H (designed binder)
# chain: B1 chain with E18K, K27H
# B26: K18M (designed binder)
# chain: B1 chain with E18M
# B27: S80R (designed binder)
# chain: B1 chain with E18K, S80R
# B28: S77L (designed binder)
# chain: B1 chain with E18K, S77L
# B29: T97N (designed binder)
# chain: B1 chain with E18K, T97N
# B30: L76Y (designed binder)
# chain: B1 chain with E18K, L76Y
# B31: S77K (designed binder)
# chain: B1 chain with E18K, S77K
# B32: M2L (designed binder)
# chain: B1 chain with M2L, E18K
# B33: K85V (designed binder)
# chain: B1 chain with E18K, K85V
# B34: E19C (designed binder)
# chain: B1 chain with E18K, E19C
# B35: E91M (designed binder)
# chain: B1 chain with E18K, E91M
# B36: A10P (designed binder)
# chain: B1 chain with A10P, E18K
# B37: E92D (designed binder)
# chain: B1 chain with E18K, E92D
# B38: K16S (designed binder)
# chain: B1 chain with K16S, E18K
# B39: K17H (designed binder)
# chain: B1 chain with K17H, E18K
# B40: A105L (designed binder)
# chain: B1 chain with E18K, A105L
# B41: A30G (designed binder)
# chain: B1 chain with E18K, A30G
# B42: V74Y (designed binder)
# chain: B1 chain with E18K, V74Y
# B43: R96V (designed binder)
# chain: B1 chain with E18K, R96V
# B44: E7Y (designed binder)
# chain: B1 chain with E7Y, E18K
# B45: K73F (designed binder)
# chain: B1 chain with E18K, K73F
# B46: K64W (designed binder)
# chain: B1 chain with E18K, K64W
# B47: E61H (designed binder)
# chain: B1 chain with E18K, E61H
# B48: E12H (designed binder)
# chain: B1 chain with E12H, E18K
# B49: T57A (designed binder)
# chain: B1 chain with E18K, T57A
# B50: E5S (designed binder)
# chain: B1 chain with E5S, E18K
# B51: K33N (designed binder)
# chain: B1 chain with E18K, K33N
# B52: E104A (designed binder)
# chain: B1 chain with E18K, E104A
# B53: E61Y (designed binder)
# chain: B1 chain with E18K, E61Y
# B54: F39K (designed binder)
# chain: B1 chain with E18K, F39K
# B55: K11P (designed binder)
# chain: B1 chain with K11P, E18K
# B56: K64A (designed binder)
# chain: B1 chain with E18K, K64A
# B57: Y70F (designed binder)
# chain: B1 chain with E18K, Y70F
# B58: L94D (designed binder)
# chain: B1 chain with E18K, L94D
# B59: Y50R (designed binder)
# chain: B1 chain with E18K, Y50R
# Molecular target: T1, TNFR1
# Assay: yeast display SC50
row,apparent Kd (screen) [nM],Binder
1,1.86,B1
2,18.3,B2
3,0.446,B3
4,1.05,B4
5,0.49,B5
6,0.593,B6
7,0.539,B7
8,0.49,B8
9,1.4,B9
10,0.446,B10
11,11.4,B11
12,2.73,B12
13,6.43,B13
14,0.446,B14
15,2.73,B15
16,1.69,B16
17,0.539,B17
18,11.4,B18
19,7.78,B19
20,1.86,B20

row,apparent Kd (screen) [nM],Binder
1,22.2,B21
2,2.48,B22
3,12.5,B23
4,1.05,B24
5,0.446,B25
6,1.05,B26
7,0.593,B27
8,7.07,B28
9,1.16,B29
10,2.05,B30
11,4.83,B31
12,1.05,B32
13,1.05,B33
14,0.446,B34
15,11.4,B35
16,11.4,B36
17,0.446,B37
18,3,B38
19,0.869,B39
20,1.86,B40

row,apparent Kd (screen) [nM],Binder
1,0.956,B41
2,9.41,B42
3,0.869,B43
4,7.07,B44
5,15.2,B45
6,0.446,B46
7,1.54,B47
8,0.49,B48
9,2.73,B49
10,0.593,B50
11,1.05,B51
12,0.79,B52
13,1.86,B53
14,8.56,B54
15,18.3,B55
16,0.956,B56
17,12.5,B57
18,1.86,B58
19,2.25,B59
